Measured values taken from patent US20230301998A1 (SANFORD BURNHAM PREBYS MEDICAL DISCOVERY INSTITUTE, published 2023).

Assays:
Test in all cases: Flag IP of Flag-SHARPIN from WM115 lysate, on-bead tryptic digestion, LC/MS-MS
XRCC6 = molecular target: T1, XRCC6 (human, UniProt P12956 2-609)
T1 construct: endogenous protein co-purified from WM115 lysate
Method: (§1) To identify SHARPIN-interacting proteins, WM115 cells were transfected with Flag-tagged SHARPIN or control empty plasmid. Cell lysates were prepared using 1% Triton X-100 buffer [50 mM Tris-HCl, pH7.4, 1% (v/v) Triton X-100, 150 mM NaCl, 1 mM EDTA, and protease and phosphatase inhibitor cocktails (Thermo Fisher Scientific)]. Lysates were pre-cleared with protein A/G beads (Santa Cruz Biotechnology) for 1 h at 4° C. followed by immunoprecipitation using FLAG-M2-agarose beads (Sigma-Aldrich) overnight at 4° C. Beads were then washed with lysis buffer and TBS containing lx protease inhibitor cocktail before being subjected to on-bead tryptic digestion followed by mass spectrometry. In Vitro Methylation Assay.

PARP1 = molecular target: T2, PARP1 (human, UniProt P09874 2-1014)
T2 construct: endogenous protein co-purified from WM115 lysate
Method: as §1

PNKP = molecular target: T3, PNKP (human, UniProt Q96T60 1-521)
T3 construct: endogenous protein co-purified from WM115 lysate
Method: as §1

RBM10 = molecular target: T4, RBM10 (human, UniProt P98175 1-930, limits assumed)
T4 construct: endogenous protein co-purified from WM115 lysate
Method: as §1

HSPA5 = molecular target: T5, HSPA5 (human, UniProt P11021 19-654)
T5 construct: endogenous protein co-purified from WM115 lysate
Method: as §1

PKM = molecular target: T6, PKM (human, UniProt P14618 2-531, limits assumed)
T6 construct: endogenous protein co-purified from WM115 lysate
Method: as §1

PRPF31 = molecular target: T7, PRPF31 (human, UniProt Q8WWY3 1-499)
T7 sequence (looked up): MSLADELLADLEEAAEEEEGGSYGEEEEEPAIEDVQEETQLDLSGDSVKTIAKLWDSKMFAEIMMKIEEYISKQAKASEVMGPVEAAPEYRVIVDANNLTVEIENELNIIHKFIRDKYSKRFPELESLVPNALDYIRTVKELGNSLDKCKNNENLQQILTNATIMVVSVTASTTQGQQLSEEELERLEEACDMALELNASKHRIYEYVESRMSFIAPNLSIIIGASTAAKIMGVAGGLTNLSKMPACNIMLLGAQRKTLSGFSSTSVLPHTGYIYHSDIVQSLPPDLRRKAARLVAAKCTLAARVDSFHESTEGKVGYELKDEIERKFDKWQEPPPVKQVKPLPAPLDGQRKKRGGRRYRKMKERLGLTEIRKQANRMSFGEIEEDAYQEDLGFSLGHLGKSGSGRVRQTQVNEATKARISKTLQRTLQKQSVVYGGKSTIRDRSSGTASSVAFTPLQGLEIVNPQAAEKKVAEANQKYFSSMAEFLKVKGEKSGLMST
Method: as §1

VIM = molecular target: T8, VIM (human, UniProt P08670 2-466)
T8 construct: endogenous protein co-purified from WM115 lysate
Method: as §1

SLC25A13 = molecular target: T9, SLC25A13 (human, UniProt Q9UJS0 2-675)
T9 construct: endogenous protein co-purified from WM115 lysate
T9 sequence (looked up): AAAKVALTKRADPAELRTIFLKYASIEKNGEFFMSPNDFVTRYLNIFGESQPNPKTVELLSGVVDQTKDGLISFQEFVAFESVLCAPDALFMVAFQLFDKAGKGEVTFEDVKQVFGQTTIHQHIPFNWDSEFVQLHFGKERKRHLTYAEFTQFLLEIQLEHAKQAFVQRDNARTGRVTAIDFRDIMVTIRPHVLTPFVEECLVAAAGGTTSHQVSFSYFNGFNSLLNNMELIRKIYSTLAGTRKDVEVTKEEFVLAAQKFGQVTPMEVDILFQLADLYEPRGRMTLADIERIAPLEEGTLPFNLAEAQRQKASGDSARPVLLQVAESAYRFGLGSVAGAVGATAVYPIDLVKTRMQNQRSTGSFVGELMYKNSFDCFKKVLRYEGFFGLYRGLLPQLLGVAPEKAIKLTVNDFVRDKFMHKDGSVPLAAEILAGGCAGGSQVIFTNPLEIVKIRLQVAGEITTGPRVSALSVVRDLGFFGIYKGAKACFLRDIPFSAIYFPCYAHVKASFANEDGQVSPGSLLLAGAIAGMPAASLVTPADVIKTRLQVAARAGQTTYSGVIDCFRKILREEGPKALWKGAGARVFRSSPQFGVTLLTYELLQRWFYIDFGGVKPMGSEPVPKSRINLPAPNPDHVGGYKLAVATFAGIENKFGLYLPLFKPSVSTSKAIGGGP
Method: as §1

MYH9 = molecular target: T10, MYH9 (human, UniProt P35579 2-1960)
T10 construct: endogenous protein co-purified from WM115 lysate
Method: as §1

FASN = molecular target: T11, FASN (human, UniProt P49327 1-2511)
T11 construct: endogenous protein co-purified from WM115 lysate
Method: as §1

CLTC = molecular target: T12, CLTC (human, UniProt Q00610 2-1675)
T12 construct: endogenous protein co-purified from WM115 lysate
Method: as §1

HSPA9 = molecular target: T13, HSPA9 (human, UniProt P38646 47-679)
T13 construct: endogenous protein co-purified from WM115 lysate
Method: as §1

DYNC1H1 = molecular target: T14, DYNC1H1 (human, UniProt Q14204 2-4646)
T14 construct: endogenous protein co-purified from WM115 lysate
T14 sequence (Q14204 2-4646 limits assumed): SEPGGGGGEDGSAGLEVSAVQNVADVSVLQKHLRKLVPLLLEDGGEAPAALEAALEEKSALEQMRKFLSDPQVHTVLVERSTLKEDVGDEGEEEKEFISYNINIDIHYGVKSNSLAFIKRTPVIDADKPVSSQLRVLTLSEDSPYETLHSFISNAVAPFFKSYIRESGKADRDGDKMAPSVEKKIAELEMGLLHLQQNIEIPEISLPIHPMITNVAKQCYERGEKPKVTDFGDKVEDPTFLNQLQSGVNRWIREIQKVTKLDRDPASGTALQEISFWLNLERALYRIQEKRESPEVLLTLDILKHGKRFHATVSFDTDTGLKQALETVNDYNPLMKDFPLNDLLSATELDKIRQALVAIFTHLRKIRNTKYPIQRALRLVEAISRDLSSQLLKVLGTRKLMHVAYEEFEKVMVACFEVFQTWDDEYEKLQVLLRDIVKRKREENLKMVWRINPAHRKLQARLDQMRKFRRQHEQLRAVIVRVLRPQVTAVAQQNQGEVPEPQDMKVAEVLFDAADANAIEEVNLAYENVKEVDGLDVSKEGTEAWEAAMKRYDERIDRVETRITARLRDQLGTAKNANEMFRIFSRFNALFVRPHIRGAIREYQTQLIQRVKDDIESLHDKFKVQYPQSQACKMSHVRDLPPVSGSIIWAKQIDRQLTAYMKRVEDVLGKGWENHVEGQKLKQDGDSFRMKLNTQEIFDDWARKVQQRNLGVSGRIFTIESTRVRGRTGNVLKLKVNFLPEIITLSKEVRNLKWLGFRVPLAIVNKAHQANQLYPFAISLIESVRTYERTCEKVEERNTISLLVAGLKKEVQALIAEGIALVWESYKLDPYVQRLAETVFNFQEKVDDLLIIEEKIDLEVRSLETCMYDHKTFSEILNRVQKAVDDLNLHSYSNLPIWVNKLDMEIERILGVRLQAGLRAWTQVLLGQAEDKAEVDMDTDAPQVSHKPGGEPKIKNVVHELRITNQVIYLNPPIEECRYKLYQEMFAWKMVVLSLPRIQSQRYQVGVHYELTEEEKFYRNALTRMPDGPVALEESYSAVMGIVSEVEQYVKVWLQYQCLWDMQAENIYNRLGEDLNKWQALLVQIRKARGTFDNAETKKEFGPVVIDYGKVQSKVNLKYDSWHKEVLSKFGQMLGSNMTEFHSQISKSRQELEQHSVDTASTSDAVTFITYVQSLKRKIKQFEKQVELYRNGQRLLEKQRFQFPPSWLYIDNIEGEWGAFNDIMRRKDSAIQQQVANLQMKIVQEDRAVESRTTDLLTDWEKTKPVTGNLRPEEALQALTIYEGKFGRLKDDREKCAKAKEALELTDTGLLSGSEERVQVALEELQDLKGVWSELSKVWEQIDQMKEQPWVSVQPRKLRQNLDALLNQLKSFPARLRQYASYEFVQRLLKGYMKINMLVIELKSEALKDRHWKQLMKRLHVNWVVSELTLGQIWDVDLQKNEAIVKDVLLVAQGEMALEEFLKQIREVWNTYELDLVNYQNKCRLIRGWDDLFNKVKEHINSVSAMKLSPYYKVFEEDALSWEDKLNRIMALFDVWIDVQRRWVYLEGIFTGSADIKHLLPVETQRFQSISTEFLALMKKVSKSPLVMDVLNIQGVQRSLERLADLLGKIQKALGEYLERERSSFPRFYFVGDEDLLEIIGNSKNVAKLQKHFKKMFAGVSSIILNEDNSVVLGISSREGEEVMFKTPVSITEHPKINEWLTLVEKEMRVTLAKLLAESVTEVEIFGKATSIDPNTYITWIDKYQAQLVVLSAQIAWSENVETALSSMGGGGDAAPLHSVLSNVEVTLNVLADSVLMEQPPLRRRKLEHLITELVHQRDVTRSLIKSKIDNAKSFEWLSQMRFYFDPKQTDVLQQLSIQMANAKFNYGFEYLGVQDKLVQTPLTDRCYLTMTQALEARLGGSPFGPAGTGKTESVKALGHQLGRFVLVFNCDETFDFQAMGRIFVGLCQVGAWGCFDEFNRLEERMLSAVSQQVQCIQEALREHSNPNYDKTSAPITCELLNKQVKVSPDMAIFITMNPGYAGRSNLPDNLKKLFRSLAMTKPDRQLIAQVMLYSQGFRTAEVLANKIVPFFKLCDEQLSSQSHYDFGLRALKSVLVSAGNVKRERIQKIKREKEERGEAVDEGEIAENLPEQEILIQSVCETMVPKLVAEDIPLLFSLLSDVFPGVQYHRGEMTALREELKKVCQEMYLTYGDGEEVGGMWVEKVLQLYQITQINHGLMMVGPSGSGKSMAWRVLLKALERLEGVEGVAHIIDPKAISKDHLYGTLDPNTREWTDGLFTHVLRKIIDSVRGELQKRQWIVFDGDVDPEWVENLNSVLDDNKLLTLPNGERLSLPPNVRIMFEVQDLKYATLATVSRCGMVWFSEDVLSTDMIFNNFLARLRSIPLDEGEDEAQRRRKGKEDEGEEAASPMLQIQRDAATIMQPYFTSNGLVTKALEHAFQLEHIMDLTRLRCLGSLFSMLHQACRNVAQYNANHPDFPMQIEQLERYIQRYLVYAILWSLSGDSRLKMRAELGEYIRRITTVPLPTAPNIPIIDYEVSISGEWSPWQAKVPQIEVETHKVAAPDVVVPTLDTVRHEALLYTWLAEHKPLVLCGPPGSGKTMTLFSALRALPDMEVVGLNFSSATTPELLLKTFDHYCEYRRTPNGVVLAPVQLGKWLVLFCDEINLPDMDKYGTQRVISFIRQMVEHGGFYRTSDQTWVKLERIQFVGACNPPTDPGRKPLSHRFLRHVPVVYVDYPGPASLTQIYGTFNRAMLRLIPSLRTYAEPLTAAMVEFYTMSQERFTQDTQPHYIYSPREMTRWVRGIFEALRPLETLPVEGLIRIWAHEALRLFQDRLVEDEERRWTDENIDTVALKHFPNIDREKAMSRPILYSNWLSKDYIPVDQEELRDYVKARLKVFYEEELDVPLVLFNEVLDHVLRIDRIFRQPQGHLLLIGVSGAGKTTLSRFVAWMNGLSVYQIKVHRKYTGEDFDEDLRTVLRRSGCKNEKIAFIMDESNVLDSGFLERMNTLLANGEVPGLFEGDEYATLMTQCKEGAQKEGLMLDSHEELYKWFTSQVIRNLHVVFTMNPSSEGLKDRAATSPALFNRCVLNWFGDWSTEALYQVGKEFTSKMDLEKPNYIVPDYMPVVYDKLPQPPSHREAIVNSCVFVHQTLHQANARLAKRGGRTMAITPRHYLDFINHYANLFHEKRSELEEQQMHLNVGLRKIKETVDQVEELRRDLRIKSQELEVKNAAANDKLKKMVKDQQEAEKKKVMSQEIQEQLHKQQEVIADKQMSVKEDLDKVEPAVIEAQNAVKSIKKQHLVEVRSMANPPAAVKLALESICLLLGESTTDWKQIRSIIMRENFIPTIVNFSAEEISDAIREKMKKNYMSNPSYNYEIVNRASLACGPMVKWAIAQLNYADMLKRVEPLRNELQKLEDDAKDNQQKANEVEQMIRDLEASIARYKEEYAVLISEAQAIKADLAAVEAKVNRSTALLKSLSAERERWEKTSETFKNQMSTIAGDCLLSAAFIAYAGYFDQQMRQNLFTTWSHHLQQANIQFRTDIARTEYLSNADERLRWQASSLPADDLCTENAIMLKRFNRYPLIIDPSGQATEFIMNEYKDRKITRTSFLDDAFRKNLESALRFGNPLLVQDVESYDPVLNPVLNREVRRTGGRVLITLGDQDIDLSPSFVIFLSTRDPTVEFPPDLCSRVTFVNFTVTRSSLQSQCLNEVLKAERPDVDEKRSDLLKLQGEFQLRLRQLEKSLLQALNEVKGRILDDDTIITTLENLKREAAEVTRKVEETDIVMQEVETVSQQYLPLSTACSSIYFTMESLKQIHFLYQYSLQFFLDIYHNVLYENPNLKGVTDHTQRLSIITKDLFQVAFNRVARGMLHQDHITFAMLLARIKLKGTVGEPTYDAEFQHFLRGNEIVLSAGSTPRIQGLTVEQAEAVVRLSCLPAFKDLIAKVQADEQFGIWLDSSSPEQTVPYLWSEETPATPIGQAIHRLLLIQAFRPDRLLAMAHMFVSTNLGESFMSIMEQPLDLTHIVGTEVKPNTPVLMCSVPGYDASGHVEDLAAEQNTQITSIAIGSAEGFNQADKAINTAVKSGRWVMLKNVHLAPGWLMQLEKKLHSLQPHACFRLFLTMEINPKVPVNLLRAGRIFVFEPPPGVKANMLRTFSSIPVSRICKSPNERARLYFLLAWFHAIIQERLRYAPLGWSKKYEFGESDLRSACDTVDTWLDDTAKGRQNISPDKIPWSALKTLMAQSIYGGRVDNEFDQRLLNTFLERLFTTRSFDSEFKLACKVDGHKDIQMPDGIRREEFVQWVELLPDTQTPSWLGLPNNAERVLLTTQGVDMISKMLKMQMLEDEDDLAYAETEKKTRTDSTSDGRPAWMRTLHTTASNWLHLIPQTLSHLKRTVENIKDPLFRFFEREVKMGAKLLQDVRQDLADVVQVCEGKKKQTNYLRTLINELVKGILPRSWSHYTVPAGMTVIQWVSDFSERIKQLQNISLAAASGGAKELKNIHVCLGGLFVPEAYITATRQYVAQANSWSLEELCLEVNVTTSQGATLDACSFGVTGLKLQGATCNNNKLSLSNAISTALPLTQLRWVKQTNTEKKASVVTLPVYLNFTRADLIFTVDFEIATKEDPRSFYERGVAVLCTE
Method: as §1

PFKFB2 = molecular target: T15, PFKFB2 (human, UniProt O60825 2-505, limits assumed)
T15 construct: endogenous protein co-purified from WM115 lysate
Method: as §1

PFKFB3 = molecular target: T16, PFKFB3 (human, UniProt Q16875 1-520, limits assumed)
T16 construct: endogenous protein co-purified from WM115 lysate
T16 sequence (Q16875 whole entry): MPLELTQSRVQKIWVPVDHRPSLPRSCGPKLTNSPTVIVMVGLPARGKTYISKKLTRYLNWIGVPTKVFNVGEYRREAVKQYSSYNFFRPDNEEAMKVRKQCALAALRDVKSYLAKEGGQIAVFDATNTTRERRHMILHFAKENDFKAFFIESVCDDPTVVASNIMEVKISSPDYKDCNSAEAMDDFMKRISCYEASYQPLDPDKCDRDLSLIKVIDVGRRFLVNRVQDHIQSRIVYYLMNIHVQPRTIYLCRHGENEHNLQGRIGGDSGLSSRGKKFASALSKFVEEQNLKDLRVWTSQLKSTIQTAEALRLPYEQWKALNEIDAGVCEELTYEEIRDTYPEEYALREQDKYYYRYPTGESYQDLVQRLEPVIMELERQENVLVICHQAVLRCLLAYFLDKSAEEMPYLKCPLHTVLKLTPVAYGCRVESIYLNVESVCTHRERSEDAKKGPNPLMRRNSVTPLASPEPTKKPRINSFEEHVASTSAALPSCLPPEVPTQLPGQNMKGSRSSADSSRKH
Method: as §1

Measured: binding result

B1: Flag-tagged SHARPIN (other, human, UniProt Q9H0F6 1-387, looked up)
chain: MAPPAGGAAAAASDLGSAAVLLAVHAAVRPLGAGPDAEAQLRRLQLSADPERPGRFRLELLGAGPGAVNLEWPLESVSYTIRGPTQHELQPPPGGPGTLSLHFLNPQEAQRWAVLVRGATVEGQNGSKSNSPPALGPEACPVSLPSPPEASTLKGPPPEADLPRSPGNLTEREELAGSLARAIAGGDEKGAAQVAAVLAQHRVALSVQLQEACFPPGPIRLQVTLEDAASAASAASSAHVALQVHPHCTVAALQEQVFSELGFPPAVQRWVIGRCLCVPERSLASYGVRQDGDPAFLYLLSAPREAPATGPSPQHPQKMDGELGRLFPPSLGLPPGPQPAASSLPSPLQPSWSCPSCTFINAPDRPGCEMCSTQRPCTWDPLAAAST
notes: also called Flag-SHARPIN; not shown: FLAG tag
binds: all assays above
